The values that follow are results of earlier work, collected in article PMC2174977.

In the series the target is chemoreceptor (Tar) (Escherichia coli) (UniProt P07017).
UniProt P07017, sequence (P07017 whole entry): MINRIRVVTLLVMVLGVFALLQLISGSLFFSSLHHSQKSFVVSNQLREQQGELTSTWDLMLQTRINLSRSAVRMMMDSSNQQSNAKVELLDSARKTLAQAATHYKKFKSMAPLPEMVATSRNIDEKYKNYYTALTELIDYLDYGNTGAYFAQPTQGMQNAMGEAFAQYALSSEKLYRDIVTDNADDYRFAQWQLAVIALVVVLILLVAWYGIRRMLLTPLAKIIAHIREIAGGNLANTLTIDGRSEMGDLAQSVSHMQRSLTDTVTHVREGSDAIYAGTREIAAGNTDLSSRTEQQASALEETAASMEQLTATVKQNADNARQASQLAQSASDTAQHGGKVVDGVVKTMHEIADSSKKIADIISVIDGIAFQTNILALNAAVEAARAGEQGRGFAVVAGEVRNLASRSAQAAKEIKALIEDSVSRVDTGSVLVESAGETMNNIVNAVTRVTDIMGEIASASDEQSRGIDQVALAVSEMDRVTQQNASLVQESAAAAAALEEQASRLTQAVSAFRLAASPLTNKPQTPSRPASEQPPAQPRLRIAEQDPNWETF

In the case of CheR (from UniProt P07364), the Kd was 11 µM.
